Biological target: T1, O32-15B
T1 construct: Homotrimeric component of the O32-15 octahedral nanocage (8 trimers per cage); also called C3 trimer; trimeric component
T1 chain: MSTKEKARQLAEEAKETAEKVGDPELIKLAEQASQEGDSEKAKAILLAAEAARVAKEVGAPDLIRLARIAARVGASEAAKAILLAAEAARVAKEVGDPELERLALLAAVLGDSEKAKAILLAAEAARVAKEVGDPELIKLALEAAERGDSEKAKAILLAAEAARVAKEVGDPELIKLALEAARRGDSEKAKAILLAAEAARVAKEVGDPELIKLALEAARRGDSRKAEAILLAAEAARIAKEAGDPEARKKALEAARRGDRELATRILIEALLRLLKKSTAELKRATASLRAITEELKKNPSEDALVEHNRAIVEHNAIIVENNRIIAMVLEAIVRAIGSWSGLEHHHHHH
Assay: negative-stain EM of two-component octahedral nanocage
Method: Transmission negative-stain electron microscopy (nsEM) and image processing: SEC purified cage fractions were diluted to about 0.5 μM (monomeric component concentration) for negative-stain EM characterization. Briefly, on a glow-discharged formvar/carbon supported 400-mesh copper grid (Ted Pella, Inc.), 6 μL of protein sample were drop-casted for 2 mins. The grid was blotted and stained with 3 μL of 2% uranyl formate, blotted again, and stained with 3 μL of uranyl formate for 20 s before final blotting. Micrographs of stained samples were taken on a 120 kV Talos™ L120C transmission electron microscope. All nsEM datasets were collected using the EPU software and processed by CryoSparc™ (Punjani et al. 2017) with contrast transfer function (CTF) correction. All the particle picks were 2D classified for 20 iterations into 50 classes. Particles from selected classes were used for building the ab-initio initial model. The initial model was homogeneously refined using C₁ and the corresponding O symmetry.

B1: O32-15A (designed binder)
chain: MDEEFKFLATEAKMLITAAERLAGTDPRLQEMVALIKKELEQAERTFRNGDKSEAQRQLEFVLTAARAVMNVAAAANAAGTDPLLKAMVDAILWRLKEAIRTFQNGDEEAETQLRFVLRAAIAVAVVAAALVLAGTDPELQEMVEQIKDLLISAFMAGEKALTQLLFVAWAAHAVAMIAAAANLAGPRLQQQVKEILEKLKEAIETFQKGDEEQAFRQLAEVLAEAALVALRAALTNLEHHHHHH
notes: Homodimeric component of the O32-15 octahedral nanocage (12 dimers per cage); also called C2 dimer (based on SP2); chlorophyll dimer component
- binding result: binds

— US20250326867A1, “De novo designed chlorophyll special pair proteins” (University of Washington, priority 2024, published 2025)
